Test results as given in article PMC2736567.

Target: endogenous GRB2 (human (endogenous in HEK-293T)) (UniProt P62993)
Chain of UniProt P62993 (P62993 whole entry): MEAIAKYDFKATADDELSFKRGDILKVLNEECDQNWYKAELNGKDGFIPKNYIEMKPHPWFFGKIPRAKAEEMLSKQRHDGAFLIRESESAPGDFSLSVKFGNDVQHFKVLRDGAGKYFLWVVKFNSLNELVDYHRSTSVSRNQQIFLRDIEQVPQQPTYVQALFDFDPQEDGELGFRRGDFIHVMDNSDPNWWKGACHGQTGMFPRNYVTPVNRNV

GST-tagged hPIV3-C (full-length) (from UniProt P06165 1-199) (natural protein)
Elk1 trans-reporter after EGF in HEK-293T expressing hPIV3-C without a tag: 14 fold
